According to paper PMC7367873, “Dissecting the sequence determinants for dephosphorylation by the catalytic subunits of phosphatases PP1 and PP2A” (Nature Communications, 2020):
Each block holds one molecule with its values, some of them ahead of it.

Columns and labels:
[1] = tested on: GFP-14-3-3β; test: GFP-14-3-3β co-IP with LC-MS/MS, untreated GFP-14-3-3β versus GFP control (14-3-3 interactome); type: binding, human; settings: label-free quantification
[2] = tested on: GFP-14-3-3β and its binding proteins; test: GFP-14-3-3β co-IP with LC-MS/MS label-free quantification, untreated versus PP1c-treated; parameters: species or system human; settings: label-free quantification
[3] = log2 difference, pairwise comparison untreated vs GFP, 3 replicates each
[4] = log2 difference, pairwise comparison PP1 vs untreated, 3 replicates each

B1: DPM1 (protein, UniProt O60762 2-260, looked up)
Dolichol-phosphate …: ASLEVSRSPRRSRRELEVRSPRQNKYSVLLPTYNERENLPLIVWLLVKSFSESGINYEIIIIDDGSPDGTRDVAEQLEKIYGSDRILLRPREKKLGLGTAYIHGMKHATGNYIIIMDADLSHHPKFIPEFIRKQKEGNFDIVSGTRYKGNGGVYGWDLKRKIISRGANFLTQILLRPGASDLTGSFRLYRKEVLEKLIEKCVSKGYVFQMEMIVRARQLNYTIGEVPISFVDRVYGESKLGGNEIVSFLKGLLTLFATT
Difference (log2), untreated vs GFP ([1]; untreated vs GFP): 1.004 log2
Difference (log2), PP1 vs untreated ([2]; PP1 vs untreated): 0.914 log2

B3: RPN2 (protein, UniProt P04844 23-631, looked up)
Dolichyl-diphosphooligosacchar …: LTPTHYLTKHDVERLKASLDRPFTNLESAFYSIVGLSSLGAQVPDAKKACTYIRSNLDPSNVDSLFYAAQASQALSGCEISISNETKDLLLAAVSEDSSVTQIYHAVAALSGFGLPLASQEALSALTARLSKEETVLATVQALQTASHLSQQADLRSIVEEIEDLVARLDELGGVYLQFEEGLETTALFVAATYKLMDHVGTEPSIKEDQVIQLMNAIFSKKNFESLSEAFSVASAAAVLSHNRYHVPVVVVPEGSASDTHEQAILRLQVTNVLSQPLTQATVKLEHAKSVASRATVLQKTSFTPVGDVFELNFMNVKFSSGYYDFLVEVEGDNRYIANTVELRVKISTEVGITNVDLSTVDKDQSIAPKTTRVTYPAKAKGTFIADSHQNFALFFQLVDVNTGAELTPHQTFVRLHNQKTGQEVVFVAEPDNKNVYKFELDTSERKIEFDSASGTYTLYLIIGDATLKNPILWNVADVVIKFPEEEAPSTVLSQNLFTPKQEIQHLFREPEKRPPTVVSNTFTALILSPLLLLFALWIRIGANVSNFTFAPSTIIFHLGHAAMLGLMYVYWTQLNMFQTLKYLAILGSVTFLAGNRMLAQQAVKRTAH
Difference (log2), untreated vs GFP [1, 3]: -1.824
Difference (log2), PP1 vs untreated [2, 4]: 2.419

B4: SRP68 (protein, UniProt Q9UHB9 1-627, looked up)
Signal recognition particle …: MAAEKQVPGGGGGGGSGGGGGSGGGGSGGGRGAGGEENKENERPSAGSKANKEFGDSLSLEILQIIKESQQQHGLRHGDFQRYRGYCSRRQRRLRKTLNFKMGNRHKFTGKKVTEELLTDNRYLLLVLMDAERAWSYAMQLKQEANTEPRKRFHLLSRLRKAVKHAEELERLCESNRVDAKTKLEAQAYTAYLSGMLRFEHQEWKAAIEAFNKCKTIYEKLASAFTEEQAVLYNQRVEEISPNIRYCAYNIGDQSAINELMQMRLRSGGTEGLLAEKLEALITQTRAKQAATMSEVEWRGRTVPVKIDKVRIFLLGLADNEAAIVQAESEETKERLFESMLSECRDAIQVVREELKPDQKQRDYILEGEPGKVSNLQYLHSYLTYIKLSTAIKRNENMAKGLQRALLQQQPEDDSKRSPRPQDLIRLYDIILQNLVELLQLPGLEEDKAFQKEIGLKTLVFKAYRCFFIAQSYVLVKKWSEALVLYDRVLKYANEVNSDAGAFKNSLKDLPDVQELITQVRSEKCSLQAAAILDANDAHQTETSSSQVKDNKPLVERFETFCLDPSLVTKQANLVHFPPGFQPIPCKPLFFDLALNHVAFPPLEDKLEQKTKSGLTGYIKGIFGFRS
Difference (log2), untreated vs GFP ([1]; untreated vs GFP): 0.06806 log2
Difference (log2), PP1 vs untreated ([2]; PP1 vs untreated): 0.7891 log2

B7: PGAM5 (protein, UniProt Q96HS1 1-289, looked up)
Serine/threonine-protein …: MAFRQALQLAACGLAGGSAAVLFSAVAVGKPRAGGDAEPRPAEPPAWAGGARPGPGVWDPNWDRREPLSLINVRKRNVESGEEELASKLDHYKAKATRHIFLIRHSQYHVDGSLEKDRTLTPLGREQAELTGLRLASLGLKFNKIVHSSMTRAIETTDIISRHLPGVCKVSTDLLREGAPIEPDPPVSHWKPEAVQYYEDGARIEAAFRNYIHRADARQEEDSYEIFICHANVIRYIVCRALQFPPEGWLRLSLNNGSITHLVIRPNGRVALRTLGDTGFMPPDKITRS
Difference (log2), untreated vs GFP [1, 3]: -0.7531
Difference (log2), PP1 vs untreated [2, 4]: 2.342

B9: U2SURP (protein, UniProt O15042 2-1029, looked up)
U2 snRNP-associated SURP …: ADKTPGGSQKASSKTRSSDVHSSGSSDAHMDASGPSDSDMPSRTRPKSPRKHNYRNESARESLCDSPHQNLSRPLLENKLKAFSIGKMSTAKRTLSKKEQEELKKKEDEKAAAEIYEEFLAAFEGSDGNKVKTFVRGGVVNAAKEEHETDEKRGKIYKPSSRFADQKNPPNQSSNERPPSLLVIETKKPPLKKGEKEKKKSNLELFKEELKQIQEERDERHKTKGRLSRFEPPQSDSDGQRRSMDAPSRRNRSSGVLDDYAPGSHDVGDPSTTNLYLGNINPQMNEEMLCQEFGRFGPLASVKIMWPRTDEERARERNCGFVAFMNRRDAERALKNLNGKMIMSFEMKLGWGKAVPIPPHPIYIPPSMMEHTLPPPPSGLPFNAQPRERLKNPNAPMLPPPKNKEDFEKTLSQAIVKVVIPTERNLLALIHRMIEFVVREGPMFEAMIMNREINNPMFRFLFENQTPAHVYYRWKLYSILQGDSPTKWRTEDFRMFKNGSFWRPPPLNPYLHGMSEEQETEAFVEEPSKKGALKEEQRDKLEEILRGLTPRKNDIGDAMVFCLNNAEAAEEIVDCITESLSILKTPLPKKIARLYLVSDVLYNSSAKVANASYYRKFFETKLCQIFSDLNATYRTIQGHLQSENFKQRVMTCFRAWEDWAIYPEPFLIKLQNIFLGLVNIIEEKETEDVPDDLDGAPIEEELDGAPLEDVDGIPIDATPIDDLDGVPIKSLDDDLDGVPLDATEDSKKNEPIFKVAPSKWEAVDESELEAQAVTTSKWELFDQHEESEEEENQNQEEESEDEEDTQSSKSEEHHLYSNPIKEEMTESKFSKYSEMSEEKRAKLREIELKVMKFQDELESGKRPKKPGQSFQEQVEHYRDKLLQREKEKELERERERDKKDKEKLESRSKDKKEKDECTPTRKERKRRHSTSPSPSRSSSGRRVKSPSPKSERSERSERSHKESSRSRSSHKDSPRDVSKKAKRSPSGSRTPKRSRRSRSRSPKKSGKKSRSQSRSPHRSHKKSKKNKH
Difference (log2), untreated vs GFP ([1]; untreated vs GFP): 0.6 log2
Difference (log2), PP1 vs untreated ([2]; PP1 vs untreated): 0.8713 log2

More lines, main results first:

Difference (log2), PP1 vs untreated ([2]; PP1 vs untreated): 0.8378 log2
B2: TRIM56 (protein, UniProt Q9BRZ2 1-755, looked up)
E3 ubiquitin-protein ligase …: MVSHGSSPSLLEALSSDFLACKICLEQLRAPKTLPCLHTYCQDCLAQLADGGRVRCPECRETVPVPPEGVASFKTNFFVNGLLDLVKARACGDLRAGKPACALCPLVGGTSTGGPATARCLDCADDLCQACADGHRCTRQTHTHRVVDLVGYRAGWYDEEARERQAAQCPQHPGEALRFLCQPCSQLLCRECRLDPHLDHPCLPLAEAVRARRPGLEGLLAGVDNNLVELEAARRVEKEALARLREQAARVGTQVEEAAEGVLRALLAQKQEVLGQLRAHVEAAEEAARERLAELEGREQVARAAAAFARRVLSLGREAEILSLEGAIAQRLRQLQGCPWAPGPAPCLLPQLELHPGLLDKNCHLLRLSFEEQQPQKDGGKDGAGTQGGEESQSRREDEPKTERQGGVQPQAGDGAQTPKEEKAQTTREEGAQTLEEDRAQTPHEDGGPQPHRGGRPNKKKKFKGRLKSISREPSPALGPNLDGSGLLPRPIFYCSFPTRMPGDKRSPRITGLCPFGPREILVADEQNRALKRFSLNGDYKGTVPVPEGCSPCSVAALQSAVAFSASARLYLINPNGEVQWRRALSLSQASHAVAALPSGDRVAVSVAGHVEVYNMEGSLATRFIPGGKASRGLRALVFLTTSPQGHFVGSDWQQNSVVICDGLGQVVGEYKGPGLHGCQPGSVSVDKKGYIFLTLREVNKVVILDPKGSLLGDFLTAYHGLEKPRVTTMVDGRYLVVSLSNGTIHIFRVRSPDS
Difference (log2), untreated vs GFP ([1]; untreated vs GFP): -0.02313 log2

Difference (log2), PP1 vs untreated ([2]; PP1 vs untreated): 0.9083 log2
B5: SRPR (protein, UniProt P08240 1-638, looked up)
Signal recognition particle …: MLDFFTIFSKGGLVLWCFQGVSDSCTGPVNALIRSVLLQERGGNNSFTHEALTLKYKLDNQFELVFVVGFQKILTLTYVDKLIDDVHRLFRDKYRTEIQQQSALSLLNGTFDFQNDFLRLLREAEESSKIRAPTTMKKFEDSEKAKKPVRSMIETRGEKPKEKAKNSKKKGAKKEGSDGPLATSKPVPAEKSGLPVGPENGVELSKEELIRRKREEFIQKHGRGMEKSNKSTKSDAPKEKGKKAPRVWELGGCANKEVLDYSTPTTNGTPEAALSEDINLIRGTGSGGQLQDLDCSSSDDEGAAQNSTKPSATKGTLGGMFGMLKGLVGSKSLSREDMESVLDKMRDHLIAKNVAADIAVQLCESVANKLEGKVMGTFSTVTSTVKQALQESLVQILQPQRRVDMLRDIMDAQRRQRPYVVTFCGVNGVGKSTNLAKISFWLLENGFSVLIAACDTFRAGAVEQLRTHTRRLSALHPPEKHGGRTMVQLFEKGYGKDAAGIAMEAIAFARNQGFDVVLVDTAGRMQDNAPLMTALAKLITVNTPDLVLFVGEALVGNEAVDQLVKFNRALADHSMAQTPRLIDGIVLTKFDTIDDKVGAAISMTYITSKPIVFVGTGQTYCDLRSLNAKAVVAALMKA
Difference (log2), untreated vs GFP ([1]; untreated vs GFP): -0.7055 log2

Difference (log2), PP1 vs untreated ([2]; PP1 vs untreated): 0.9262 log2
B6: VDAC2 (protein, UniProt P45880 2-294, looked up)
Non-selective voltage-gated …: ATHGQTCARPMCIPPSYADLGKAARDIFNKGFGFGLVKLDVKTKSCSGVEFSTSGSSNTDTGKVTGTLETKYKWCEYGLTFTEKWNTDNTLGTEIAIEDQICQGLKLTFDTTFSPNTGKKSGKIKSSYKRECINLGCDVDFDFAGPAIHGSAVFGYEGWLAGYQMTFDSAKSKLTRNNFAVGYRTGDFQLHTNVNDGTEFGGSIYQKVCEDLDTSVNLAWTSGTNCTRFGIAAKYQLDPTASISAKVNNSSLIGVGYTQTLRPGVKLTLSALVDGKSINAGGHKVGLALELEA
Difference (log2), untreated vs GFP ([1]; untreated vs GFP): 2.092 log2

Difference (log2), PP1 vs untreated ([2]; PP1 vs untreated): 0.8935 log2
B8: TMCO1 (protein, UniProt Q9UM00 1-239, looked up)
Calcium load-activated …: MPRKRKCDLRAVRVGLLLGGGGVYGSRFRFTFPGCRALSPWRVRVQRRRCEMSTMFADTLLIVFISVCTALLAEGITWVLVYRTDKYKRLKAEVEKQSKKLEKKKETITESAGRQQKKKIERQEEKLKNNNRDLSMVRMKSMFAIGFCFTALMGMFNSIFDGRVVAKLPFTPLSYIQGLSHRNLLGDDTTDCSFIFLYILCTMSIRQNIQKILGLAPSRAATKQAGGFLGPPPPSGKFS
Difference (log2), untreated vs GFP ([1]; untreated vs GFP): 2.261 log2
